Source: PMC5686067
Residue numbers refer to the chain shown, from its start. Numbers in names are those of the source. Values belong to the binder of their own block, whether it stands above or below them.

Legend:
[1] = target: T1, sMepS-6×His-C (soluble MepS without its lipoprotein signal peptide, C-terminal His-tag), P0AFV4; assay: ITC; conditions: chain shown with the change
T1 chain: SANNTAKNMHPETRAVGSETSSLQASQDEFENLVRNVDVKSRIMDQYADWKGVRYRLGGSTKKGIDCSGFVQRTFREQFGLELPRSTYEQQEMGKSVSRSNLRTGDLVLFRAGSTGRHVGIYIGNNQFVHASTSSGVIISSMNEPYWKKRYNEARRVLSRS

[2] = target: Prc (full-length, C-terminal His-tag) (E. coli) (UniProt P23865)
Prc (full-length, C-terminal His-tag) (E. coli), sequence (P23865 23-682 limits assumed): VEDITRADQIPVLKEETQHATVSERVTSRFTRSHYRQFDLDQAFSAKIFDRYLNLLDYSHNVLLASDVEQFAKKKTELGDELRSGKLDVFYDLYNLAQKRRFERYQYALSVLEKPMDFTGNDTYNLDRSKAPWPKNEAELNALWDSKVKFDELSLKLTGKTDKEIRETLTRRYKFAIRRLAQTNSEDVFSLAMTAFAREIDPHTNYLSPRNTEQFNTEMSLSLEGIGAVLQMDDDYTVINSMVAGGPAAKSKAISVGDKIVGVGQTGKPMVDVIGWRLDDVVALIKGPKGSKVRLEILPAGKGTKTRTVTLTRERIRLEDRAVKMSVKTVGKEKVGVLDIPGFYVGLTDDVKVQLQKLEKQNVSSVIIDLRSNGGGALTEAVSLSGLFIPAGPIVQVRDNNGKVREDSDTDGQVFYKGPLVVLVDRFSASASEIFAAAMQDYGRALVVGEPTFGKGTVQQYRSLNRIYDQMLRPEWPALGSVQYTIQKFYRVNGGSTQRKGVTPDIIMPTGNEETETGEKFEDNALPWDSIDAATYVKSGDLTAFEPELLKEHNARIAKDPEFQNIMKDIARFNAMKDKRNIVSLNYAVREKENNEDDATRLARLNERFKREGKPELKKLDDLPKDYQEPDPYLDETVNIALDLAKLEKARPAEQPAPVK

[3] = target: Prc (full-length, C-terminal His-tag) (E. coli) (UniProt P23865); assay: ITC; iTC200, 20 °C, 20 mM HEPES pH 7.5, 300 mM NaCl, 2 mM 2-mercaptoethanol; 23 µM sMepS or Prc in the cell, 230 µM sNlpI (alone or with equimolar Prc) in the syringe; one binding site model
[4] = target: sMepS-6×His-C (soluble MepS without its lipoprotein signal peptide, C-terminal His-tag) (E. coli) (UniProt P0AFV4); assay: as above

Kd [1]: 1450 nM
B1: sNlpI (soluble NlpI without its lipoprotein signal peptide), P0AFB1 A114W (protein)
chain: SNTSWRKSEVLAVPLQPTLQQEVILARMEQILASRALTDDERAQLLYERGVLYDSLGLRALARNDFSQALAIRPDMPEVFNYLGIYLTQAGNFDWAYEAFDSVLELDPTYNYAHLNRGIALYYGGRDKLAQDDLLAFYQDDPNDPFRSLWLYLAEQKLDEKQAKEVLKQHFEKSDKEQWGWNIVEFYLGNISEQTLMERLKADATDNTSLAEHLSETNFYLGKYYLSLGDLDSATALFKLAVANNVHNFVEHRYALLELSLLGQDQDDLAESDQQ

melting temperature (T m) of Prc-sNlpI in thermal shift assay (Prc alone 40.1 °C) [2]: 53.6 °C
Kd [3]: < 10 nM
Kd [4]: 750 nM
B2: sNlpI (soluble NlpI without its lipoprotein signal peptide) (natural protein)
chain: B1 chain with W95A
